Experimental data published in US20180355338A1.

Columns and labels:
[1] = target: TY-145 protease variant I150A, S173P, S175P, F180Y (Bacillus sp. TY-145); test: Ki fitted from Suc-AAPF-pNA activity; Tris buffer pH 8; ratio against m3 (without I150A)
[2] = target: TY-145 protease variant S27K, Q70N, G107N, I121V, E127Q, S173P, S175P, F180Y, L184F, Q198E, T297P (Bacillus sp. TY-145); test: Ki fitted from Suc-AAPF-pNA activity; Model B detergent; ratio against m7 (without L184F)
[3] = target: TY-145 protease variant K146N, S173P, S175P, F180Y (Bacillus sp. TY-145); test: Ki fitted from Suc-AAPF-pNA activity; Tris buffer pH 8; ratio against m3 (without K146N)
[4] = target: TY-145 protease variant I150A, S173P, S175P, F180Y (Bacillus sp. TY-145); test: Ki fitted from Suc-AAPF-pNA activity; Model B detergent; ratio against m3 (without I150A)
[5] = target: TY-145 protease variant K146F, S173P, S175P, F180Y (Bacillus sp. TY-145); test: Ki fitted from Suc-AAPF-pNA activity; Model B detergent; ratio against m3 (without K146F)
[6] = target: TY-145 protease variant S173P, S175P, I178P, F180Y (Bacillus sp. TY-145); test: Ki fitted from Suc-AAPF-pNA activity; Model B detergent; ratio against m3 (without I178P)
[7] = target: TY-145 protease variant K146F, S173P, S175P, F180Y (Bacillus sp. TY-145); test: Ki fitted from Suc-AAPF-pNA activity; Tris buffer pH 8; ratio against m3 (without K146F)
[8] = target: TY-145 protease variant S27K, S171N, S173P, G174R, S175P, F180Y, L184F, Q198E, T297P (Bacillus sp. TY-145); test: Ki fitted from Suc-AAPF-pNA activity; Model B detergent; ratio against m4 (without L184F)
[9] = target: TY-145 protease variant S173P, S175P, F180Y, R224G (Bacillus sp. TY-145); test: Ki fitted from Suc-AAPF-pNA activity; Model B detergent; ratio against m3 (without R224G)
[10] = target: TY-145 protease variant S27K, V162T, S173P, G174K, S175P, F180Y, L184F, Q197K, Q198E, T297P (Bacillus sp. TY-145); test: Ki fitted from Suc-AAPF-pNA activity; Model B detergent; ratio against m14 (without L184F)
[11] = target: TY-145 protease variant Q70A (Bacillus sp. TY-145); test: Ki fitted from Suc-AAPF-pNA activity; Model B detergent; relative to TY145 backbone
[12] = target: TY-145 protease variant G182A (Bacillus sp. TY-145); test: as above
[13] = target: TY-145 protease variant Y240R (Bacillus sp. TY-145); test: as above
[14] = target: TY-145 protease variant Q70F (Bacillus sp. TY-145); test: as above
[15] = target: TY-145 protease variant L184Y (Bacillus sp. TY-145); test: as above
[16] = target: TY-145 protease variant R224G (Bacillus sp. TY-145); test: as above
[17] = target: TY-145 protease variant Q70N (Bacillus sp. TY-145); test: as above
[18] = target: TY-145 protease variant I150S (Bacillus sp. TY-145); test: as above
[19] = target: TY-145 protease variant S114A (Bacillus sp. TY-145); test: as above
[20] = target: TY-145 protease variant S111R (Bacillus sp. TY-145); test: as above
[21] = target: TY-145 protease variant L184F (Bacillus sp. TY-145); test: as above
[22] = target: TY-145 protease variant I150N (Bacillus sp. TY-145); test: as above
[23] = target: TY-145 protease variant K146T, S173P, S175P, F180Y (Bacillus sp. TY-145); test: Ki fitted from Suc-AAPF-pNA activity; Model B detergent; ratio against m3 (without K146T)
[24] = target: TY-145 protease variant S173P, S175P, F180Y, L184F (Bacillus sp. TY-145); test: Ki fitted from Suc-AAPF-pNA activity; Model B detergent; ratio against m3 (without L184F); second row of the same variant
[25] = target: TY-145 protease variant S27K, K146P, S148R, A151R, S171N, S173P, G174R, S175P, F180Y, Q198E, N199K, T297P (Bacillus sp. TY-145); test: Ki fitted from Suc-AAPF-pNA activity; Model B detergent; ratio against m5 (without A151R)
[26] = target: TY-145 protease variant S173P, S175P, F180Y, L184D (Bacillus sp. TY-145); test: Ki fitted from Suc-AAPF-pNA activity; Model B detergent; ratio against m3 (without L184D)
[27] = target: TY-145 protease variant K146A, S173P, S175P, F180Y (Bacillus sp. TY-145); test: Ki fitted from Suc-AAPF-pNA activity; Model B detergent; ratio against m3 (without K146A)

“Z-Gly-Ala-NHCH(CH2C6H4pOH)C(OH)(SO3Na)-H, wherein Z is benzyloxycarbonyl (peptide)” showed a relative Ki mutation [1] of 0.4, a relative Ki mutation [2] of 0.37 and a relative Ki mutation [3] of 0.91. For the same substance, the relative Ki mutation [4] was 0.5, the relative Ki mutation [5] was 0.25 and the relative Ki mutation [6] was 0.51. It also gave a relative Ki mutation [7] of 0.19, a relative Ki mutation [8] of 0.18 and a relative Ki mutation [9] of 0.47. The relative Ki mutation [10] was 0.17, the IF (binding constant improvement factor, relative Ki) [11] was 0.39 and the IF (binding constant improvement factor, relative Ki) [12] was 0.54. For the same substance, the IF (binding constant improvement factor, relative Ki) [13] was 0.84, the IF (binding constant improvement factor, relative Ki) [14] was 0.12 and the IF (binding constant improvement factor, relative Ki) [15] was 0.22. The IF (binding constant improvement factor, relative Ki) [16] was 0.6, the IF (binding constant improvement factor, relative Ki) [17] was 0.3 and the IF (binding constant improvement factor, relative Ki) [18] was 0.2. It also gave an IF (binding constant improvement factor, relative Ki) [19] of 0.47, an IF (binding constant improvement factor, relative Ki) [20] of 0.9 and an IF (binding constant improvement factor, relative Ki) [21] of 0.44. It also gave an IF (binding constant improvement factor, relative Ki) [22] of 0.27, a relative Ki mutation [23] of 0.08 and a relative Ki mutation [24] of 0.27. It also gave a relative Ki mutation [25] of 0.75, a relative Ki mutation [26] of 0.37 and a relative Ki mutation [27] of 0.34.
